Source: article PMC3781594 (Circulation, 2013)
Read-outs that look alike come from different tables or passages of the source.

Columns and labels:
[1] = target: T1, recombinant CD74 ectodomain (sCD74 = CD74 73-232) (UniProt P04233-2 73-232); assay: ELISA
T1 sequence (looked up): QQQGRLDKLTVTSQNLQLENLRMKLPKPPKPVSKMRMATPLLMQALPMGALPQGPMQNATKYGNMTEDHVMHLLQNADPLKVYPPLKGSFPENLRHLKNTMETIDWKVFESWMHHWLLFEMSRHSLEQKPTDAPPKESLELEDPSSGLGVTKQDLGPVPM

[2] = target: T1, recombinant CD74 ectodomain (sCD74 = …); assay: SPR
[3] = target: T1, recombinant CD74 ectodomain (sCD74 = …); assay: SPR; remark: listed apart in the source

Binder | fold increase of MIF bound with 500 nM MIF20 against MIF without agonist [1] | Kd [2] | Kd [3]
biotinylated MIF (ligand, UniProt P14174 1-115, looked up, biotin (site not stated)) MPMFIVNTNVPRASVPDGFLSELTQQLAQATGKPPQYIAVHVVPDQLMAFGGSSEPCALCSLHSIGKIGGAQNRSYSKLLCGLLAERLRISPDRVYINYYDMNAANVGWNNSTFA | ~2.5 fold |  | 
human macrophage migration inhibitory factor (MIF) (ligand, UniProt P14174 1-115, looked up) MPMFIVNTNVPRASVPDGFLSELTQQLAQATGKPPQYIAVHVVPDQLMAFGGSSEPCALCSLHSIGKIGGAQNRSYSKLLCGLLAERLRISPDRVYINYYDMNAANVGWNNSTFA |  | 2.25 nM | 6.06 nM
